Experiment [1] addresses T1, huNav1.7α + β1-β2-β3 (human, UniProt Q15858 1-1988; A5A6L6 19-218; O60939 30-215; Q2KI11 23-215).
T1 construct: also called huNav1.7-beta1-beta2-beta3; huNav1.7-β1-β2-β3
The experiment in a line: binding FACS, CHO FlpIn. Here is the method: (§1) Binding of the ISVDs to cell-expressed Nav1.7α was detected via murine anti-Flag (Sigma, catalog #F1804). Briefly, cells were resuspended in FACS buffer (PBS, 10% FBS, NaN₃) and transferred to a 96-well V-bottom plate at 1×10^5 cells/well. Purified FLAG3-tagged ISVD was diluted in FACS buffer and added to the cells for 30 minutes at 4° C. […] Prior to the read-out, the samples were resuspended in 1 μg/mL propidium iodide (Sigma, catalog #P4170) to exclude dead cells. Between each step, the cells were centrifuged for 5 minutes at 200 grams and washed with 100 μL/well FACS buffer.

Experiment [2] deals with T2, rhNav1.7α + β1-β2-β3 (rhesus monkey).
T2 construct: also called rhNav1.7-beta1-beta2-beta3; rhNav1.7-β1-β2-β3
The experiment in a line: binding FACS, CHO FlpIn. As for the experimental part:
as §1

In experiment [3] the target is T3, huNav1.7α + β1-β2-β3 (human Nav1.7α co-expressed with human Navβ1, Navβ2 and Navβ3 on cells) (human).
T3 construct: also called huNav1.7-beta1-beta2-beta3; CHO FlpIn huNav1.7α + β1-β2-β3
Nature of the experiment: binding FACS, CHO FlpIn cells. The procedure, abridged: (§2)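 Cells at 1×10^5 per well incubated 30 min at 4 °C with purified FLAG3-tagged ISVD in FACS buffer (PBS, 10% FBS, NaN₃); bound ISVD detected via murine anti-Flag by flow cytometry, dead cells excluded with 1 μg/mL propidium iodide.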

In experiment [4] the target is T4, rhNav1.7α + β1-β2-β3 (rhesus Nav1.7α co-expressed with Navβ1, Navβ2 and Navβ3 on cells) (rhesus monkey (α subunit); β subunits …).
T4 construct: also called rhNav1.7-beta1-beta2-beta3; CHO FlpIn rhNav1.7α + β1-β2-β3
Nature of the experiment: binding FACS, CHO FlpIn cells. The procedure, abridged:
as §2

B1: F010302345 (VHH)
VHH: EVQLVESGGGVVQPGGSLRLSCAASHRQFIRDVFTGWYRQAPGKQRELVARIYEGGNTQYADSAKGRFTISRDNAKKTVYLQMNSLRPEDTALYYCLFSGTISTGREYRSGDYWGQGTLVTVSS
One may read the EC50 as the concentration that produces a half-maximal response. Turning to B1, in experiment [1], the Bmax is 100% and the EC50 stood at 4.9 nM. In experiment [2], the Bmax was determined as 96% and the EC50 worked out at 12 nM.

B2: F010302348 (VHH)
VHH: EVQLVESGGGVVQPGGSLRLSCAASHRAFIRDLFTGWYRQAPGKQRELVARIYESGNTNYADSAKGRFTISRDNAKKTVYLQMNSLRPEDTALYYCLFSGTISTGREYRSGDYWGQGTLVTVSS
For the molecule B2, in experiment [1], the Bmax turned out to be 100% and the EC50 was 6.7 nM. Also, in experiment [2], the Bmax amounted to 95% and the EC50 is 14 nM.

B3: F010302359 (VHH)
VHH: EVQLVESGGGVVQPGGSLRLSCAASSRQFIRDVFTGWYRQAPGKQRELVARIYESGNTQYADSVKGRFTISRDNAKKTVYLQMNSLRPEDTALYYCLFSGTISTGREYRSGDYWGQGTLVTVSS
Turning to B3, in experiment [1], the Bmax was 100% and the EC50 is 6.4 nM. Further, in experiment [2], the Bmax was 66% and the EC50 amounted to 24 nM.

B4: F010302362 (VHH)
VHH: EVQLVESGGGVVQPGGSLRLSCAASHRAFIRDVFTGWYRQAPGKQRELVARIYESGNTQYADSVKGRFTISRDNAKKTVYLQMNSLRPEDTALYYCLFSGTISTGREYRSGDYWGQGTLVTVSS
On to B4, for which, in experiment [1], the Bmax amounted to 100% and the EC50 was 5.4 nM. In experiment [2], the Bmax is 89% and the EC50 turned out to be 14 nM.

B5: F010302358 (VHH)
VHH: EVQLVESGGGVVQPGGSLRLSCAASSRQFIRDVFTGWYRQAPGKQRELVARIYNEGNTQYADSVKGRFTISRDNAKKTVYLQMNSLRPEDTALYYCLFSGTISTGREYRSGDYWGQGTLVTVSS
As for B5, the Bmax in experiment [1] turned out to be 100%; in experiment [2], 37%. The EC50 is 4.5 nM in experiment [1] and 37 nM in experiment [2].

B6: F010302346 (VHH)
VHH: EVQLVESGGGVVQPGGSLRLSCAASHRAFIRDVFTGWYRQAPGKQRELVARIYESGNTQYADSAKGRFTISRDNAKKTVYLQMNSLRPEDTALYYCLFSGTISTGREYRSGDYWGQGTLVTVSS
Take B6: the Bmax worked out at 100% in experiment [1] and 99% in experiment [2]. Further, the EC50 in experiment [1] stood at 5 nM; in experiment [2], 12 nM.

B7: F010302356 (VHH)
VHH: EVQLVESGGGVVQPGGSLRLSCAASHRAFIRDLFTGWYRRAPGKQRELVARIYESGNTNYADSVKGRFTISRDNAKKTVYLQMNSLRPEDTALYYCLFSGTISTGREYRSGDYWGQGTLVTVSS
As for B7, in experiment [1], the Bmax worked out at 100% and the EC50 was determined as 5.3 nM. In experiment [2], the Bmax was found to be 81% and the EC50 worked out at 12 nM.

B8: F010302354 (VHH)
VHH: EVQLVESGGGVVQPGGSLRLSCAASHRAFIRDVFTGWYRRAPGKQRELVARIYESGNTQYADSVKGRFTISRDNAKKTVYLQMNSLRPEDTALYYCLFSGTISTGREYRSGDYWGQGTLVTVSS
Turning to B8, in experiment [1], the Bmax worked out at 100% and the EC50 was 4.2 nM. Besides, in experiment [2], the Bmax worked out at 96% and the EC50 came to 7.9 nM.

B9: F010302350 (VHH)
VHH: EVQLVESGGGVVQPGGSLRLSCAASSRQFIRDVFTGWYRRAPGKQRELVARIYNEGNTQYADSVKGRFTISRDNAKKTVYLQMNSLRPEDTALYYCLFSGTISTGREYRSGDYWGQGTLVTVSS
As for B9, in experiment [1], the Bmax came to 100% and the EC50 came to 3.5 nM. In experiment [2], the Bmax was 46% and the EC50 worked out at 15 nM.

B10: F010302351 (VHH)
VHH: EVQLVESGGGVVQPGGSLRLSCAASSRQFIRDVFTGWYRRAPGKQRELVARIYESGNTQYADSVKGRFTISRDNAKKTVYLQMNSLRPEDTALYYCLFSGTISTGREYRSGDYWGQGTLVTVSS
For B10, in experiment [1], the Bmax turned out to be 100% and the EC50 was 5.6 nM. In experiment [2], the Bmax is 72% and the EC50 came to 15 nM.

B11: F010302352 (VHH)
VHH: EVQLVESGGGVVQPGGSLRLSCAASHRQFIRDVFTGWYRRAPGKQRELVARIYNEGNTQYADSVKGRFTISRDNAKKTVYLQMNSLRPEDTALYYCLFSGTISTGREYRSGDYWGQGTLVTVSS
As to B11, in experiment [1], the Bmax was found to be 100% and the EC50 came out at 3.6 nM. In experiment [2], the Bmax amounted to 60% and the EC50 is 11 nM.

B12: F010302353 (VHH)
VHH: EVQLVESGGGVVQPGGSLRLSCAASHRQFIRDVFTGWYRRAPGKQRELVARIYEGGNTQYADSVKGRFTISRDNAKKTVYLQMNSLRPEDTALYYCLFSGTISTGREYRSGDYWGQGTLVTVSS
B12: in experiment [1], the Bmax amounted to 100% and the EC50 came out at 4.2 nM. For the same molecule, in experiment [2], the Bmax turned out to be 93% and the EC50 is 7.9 nM.

B13: F010302360 (VHH)
VHH: EVQLVESGGGVVQPGGSLRLSCAASHRQFIRDVFTGWYRQAPGKQRELVARIYNEGNTQYADSVKGRFTISRDNAKKTVYLQMNSLRPEDTALYYCLFSGTISTGREYRSGDYWGQGTLVTVSS
For B13, in experiment [1], the Bmax came to 100% and the EC50 turned out to be 3.5 nM. Moreover, in experiment [2], the Bmax was found to be 58% and the EC50 came to 15 nM.

B14: F010302361 (VHH)
VHH: EVQLVESGGGVVQPGGSLRLSCAASHRQFIRDVFTGWYRQAPGKQRELVARIYEGGNTQYADSVKGRFTISRDNAKKTVYLQMNSLRPEDTALYYCLFSGTISTGREYRSGDYWGQGTLVTVSS
With B14, in experiment [1], the Bmax was found to be 100% and the 50% effective concentration (EC50) is 4.8 nM. For the same molecule, in experiment [2], the Bmax was found to be 92% and the EC50 turned out to be 11 nM.

B15: F010302364 (VHH)
VHH: EVQLVESGGGVVQPGGSLRLSCAASHRAFIRDLFTGWYRQAPGKQRELVARIYESGNTNYADSVKGRFTISRDNAKKTVYLQMNSLRPEDTALYYCLFSGTISTGREYRSGDYWGQGTLVTVSS
With B15, the Bmax in experiment [1] was determined as 100%; in experiment [2] it was 74%. In addition, the EC50 in experiment [1] stood at 7.2 nM; in experiment [2], 17 nM.

B16: F010302312 (VHH)
VHH: EVQLVESGGGVVQPGGSLRLSCAASGPVFNINRMAWYRQAPGKQRELVAYVTPTGDISYADSVKGRFTISRDGSKRVYLQMNSLRPEDTALYYCRALLQPDSYSITRTYWGQGTLVTVSS
notes: also called F0103387G04(L11V, A12V, K33R, R39Q, S50Y, S56D, T60A, W78V, S79Y, T83R, V89L, N93R, N100cI)
As for B16, in experiment [3], the Bmax turned out to be 100% and the EC50 turned out to be 24 nM. Moreover, in experiment [4], the Bmax stood at 100% and the 50% effective concentration (EC50) worked out at 18 nM.

B17: F010301843 (VHH)
VHH: EVQLVESGGGVVQPGGSLRLSCAASGPVFNINRMAWYRQAPGKQRELVAYVTPTGDISYTDSVKGRFTISRDNSKRWSLQMNSLRPEDTALYYCRALLQPDSYSNTRTYWGQGTLVTVSS
notes: also called F0103387G04(L11V, A12V, K33R, R39Q, S50Y, S56D, G73N, T83R, V89L, N93R)
In the case of B17, in experiment [3], the Bmax worked out at 100% and the EC50 came to 18 nM. In addition, in experiment [4], the Bmax was 100% and the half-maximal effective concentration (EC50) turned out to be 9.3 nM.

B18: F010301656 (VHH)
VHH: EVQLVESGGGLAQPGGSLRLSCAASGPVFNINRMAWYRRAPGKQRELVAYVTPTGDISYTDSVKGRFTISRDGSKRWSLQMNSLTPEDTAVYYCRALLQPDSYSNTRTYWGQGTLVTVSS
notes: also called F0103387G04(K33R, S50Y, S56D, N93R)
As for B18, in experiment [3], the Bmax was 100% and the EC50 is 17 nM. In addition, in experiment [4], the Bmax came out at 100% and the EC50 worked out at 8 nM.

B19: F010301842 (VHH)
VHH: EVQLVESGGGVVQPGGSLRLSCAASGPVFNINRMAWYRQAPGKQRELVAYVTPTGDISYADSVKGRFTISRDGSKRWSLQMNSLRPEDTALYYCRALLQPDSYSNTRTYWGQGTLVTVSS
notes: also called F0103387G04(L11V, A12V, K33R, R39Q, S50Y, S56D, T60A, T83R, V89L, N93R)
B19: the Bmax in experiment [3] and in experiment [4] was 100% throughout. The EC50 in experiment [3] amounted to 15 nM; in experiment [4] it was 7.9 nM.

B20: F010301841 (VHH)
VHH: EVQLVESGGGVVQPGGSLRLSCAASGPVFNINRMAWYRQAPGKQRELVAYVTPTGDISYTDSVKGRFTISRDGSKRWSLQMNSLRPEDTALYYCRALLQPDSYSNTRTYWGQGTLVTVSS
notes: also called F0103387G04(L11V, A12V, K33R, R39Q, S50Y, S56D, T83R, V89L, N93R)
As for B20, in experiment [3], the Bmax came to 100% and the concentration for a half-maximal effect (EC50) was 14 nM. Also, in experiment [4], the Bmax amounted to 100% and the EC50 was 7.6 nM.

These data come from patent US20240002497A1 (Merck Sharp & Dohme, published 2024).
